Experimental data from US20250002588A1 (DIAGONAL THERAPEUTICS, published 2025).
Residue numbers refer to the chain shown, from its start.

B1: DGL631 (bispecific antibody)
chain 1: not shown
chain 2: EVQLLESGGGLVQPGGSLRLSCAASGFTFSNAWMNWVRQAPGKGLEWVSSISSSSSYIYYADSVKGRFTISRDNSKNTLYLQMNSLRAEDTAVYYCARAVAAGGMFWGLDQWGQGTLVTVTSSGGGGSGGGGSGGGGSQSVLTQPPSASGTPGQRVTISCSGSRSNIGSNSVHWYQQLPGTAPKLLIYGNSNRPSGVPDRFSGSKSGTSASLAISGLRSEDEADYYCQSYDSSLNDHVVFGGGTKLTVLDKTHTCPPCPAPEAAGAPSVFLFPPKPKDTLMISRTPEVTCVVVDVSHEDPEVKFNWYVDGVEVHNAKTKPREEQYNSTYRVVSVLTVLHQDWLNGKEYKCKVSNKALPAPIEKTISKAKGQPREPQVCTLPPSRDELTKNQVSLSCAVKGFYPSDIAVEWESNGQPENNYKTTPPVLDSDGSFFLVSKLTVDKSRWQQGNVFSCSVMHEALHNHYTQKSLSLSPGWSHPQFEK
B2: DGL630 (bispecific antibody)
chain 1: not shown
chain 2: B1 chain 2
B3: DGL632 (bispecific antibody)
chain 1: not shown
chain 2: B1 chain 2
B4: DGL621 (bispecific antibody)
chain 1: not shown
chain 2: B1 chain 2
B5: DGL622 (bispecific antibody)
chain 1: not shown
chain 2: B1 chain 2
B6: DGL623 (bispecific antibody)
chain 1: not shown
chain 2: B1 chain 2
B7: DGL639 (bispecific antibody)
chain 1: EVQLLESGGGLVQPGGSLRLSCAASGFTFSDYYMTWIRQAPGKGLEWVSSISGGSTYYADSRKGRFTISRDNSENTLYLQMNSLRAEDTAVYYCARNVTSGGYFGSFGLDLWGQGTLVTVSSGGGGSGGGGSGGGGSQSVLTQPPSASGTPGQRVTISCTGSSSNIGAGYDVHWYQQLPGTAPKLLIYRSNQRPSGVPDRFSGSKSGTSASLAISGLRSEDEADYYCSSYAGNYNLVFGGGTKLTVLDKTHTCPPCPAPEAAGAPSVFLFPPKPKDTLMISRTPEVTCVVVDVSHEDPEVKFNWYVDGVEVHNAKTKPREEQYNSTYRVVSVLTVLHQDWLNGKEYKCKVSNKALPAPIEKTISKAKGQPREPQVCTLPPSRDELTKNQVSLSCAVKGFYPSDIAVEWESNGQPENNYKTTPPVLDSDGSFFLVSKLTVDKSRWQQGNVFSCSVMHEALHNHYTQKSLSLSPGWSHPQFEK
chain 2: not shown
B8: DGL638 (bispecific antibody)
chain 1: B7 chain 1 with V98E, T99V, F104Y, S106E, D110S
chain 2: not shown
B9: DGL636 (bispecific antibody)
chain 1: B7 chain 1 with N97W, V98E, G101S, Y103G, F107G, D110S, L111H
chain 2: not shown
B10: DGL637 (bispecific antibody)
chain 1: B7 chain 1 with N97L, V98T, T99V, S100D, Y103G, F104Y, F107G
chain 2: not shown
B11: DGL652 (bispecific antibody)
chain 1: not shown
chain 2: B7 chain 1 with N97D, V98F, T99G, S100V, G101A, Y103W, S106Q, F107Y, L109M, L111V
B12: DGL736 (bispecific antibody)
chain 1: not shown
chain 2: B7 chain 1 with N97D, V98F, T99G, S100V, G101A, Y103W, S106Q, F107Y, L109M, L111V
B13: DGL731 (bispecific antibody)
chain 1: B7 chain 1 with N97D, V98F, T99G, S100V, G101S, Y103W, S106Q, F107Y, L109M, L111V
chain 2: not shown
B14: DGL653 (bispecific antibody)
chain 1: not shown
chain 2: B7 chain 1 with N97D, V98F, T99G, S100V, G101A, Y103W, S106Q, F107Y, L109M, L111V
B15: DGL651 (bispecific antibody)
chain 1: not shown
chain 2: B7 chain 1 with N97D, V98F, T99G, S100V, G101A, Y103W, S106Q, F107Y, L109M, L111V
B16: DGL730 (bispecific antibody)
chain 1: B7 chain 1 with N97D, V98Y, T99G, S100V, G101A, Y103W, S106Q, F107Y, L109M, L111V
chain 2: not shown
B17: DGL737 (bispecific antibody)
chain 1: not shown
chain 2: B7 chain 1 with N97D, V98F, T99G, S100V, G101A, Y103W, S106Q, F107Y, L109M, L111V
B18: DGL654 (bispecific antibody)
chain 1: EVQLLESGGGLVQPGGSLRLSCAASGFTFSDYYMNWIRQAPGKGLEWVSSISGGSTYYADSVKGRFTISRDNSENTLYLQMNSLRAEDTAVYYCARDFGVAGWFGQFGMDVWGQGTLVTVSSGGGGSGGGGSGGGGSQSVLTQPPSASGTPGQRVTISCTGSSSNIGAGYDVHWYQQLPGTAPKLLIYRSNQRPSGVPDRFSGSKSGTSASLAISGLRSEDEADYYCSSYAGNYNLVFGGGTKLTVLDKTHTCPPCPAPEAAGAPSVFLFPPKPKDTLMISRTPEVTCVVVDVSHEDPEVKFNWYVDGVEVHNAKTKPREEQYNSTYRVVSVLTVLHQDWLNGKEYKCKVSNKALPAPIEKTISKAKGQPREPQVCTLPPSRDELTKNQVSLSCAVKGFYPSDIAVEWESNGQPENNYKTTPPVLDSDGSFFLVSKLTVDKSRWQQGNVFSCSVMHEALHNHYTQKSLSLSPGWSHPQFEK
chain 2: not shown
B19: DGL865 (bispecific antibody)
chain 1: not shown
chain 2: B18 chain 1 with Y32S, N35S, W103Y, F107Y
B20: DGL733 (bispecific antibody)
chain 1: B18 chain 1 with N35T, S55T, V62R, F107Y
chain 2: not shown
B21: DGL864 (bispecific antibody)
chain 1: not shown
chain 2: B18 chain 1 with Y32S, N35S, W103Y, F107Y
B22: DGL867 (bispecific antibody)
chain 1: not shown
chain 2: B18 chain 1 with Q106Y, F107Y
B23: DGL866 (bispecific antibody)
chain 1: not shown
chain 2: B18 chain 1 with Q106Y, F107Y
B24: DGL656 (bispecific antibody)
chain 1: B18 chain 1 with Q106Y, F107Y
chain 2: not shown
B25: DGL734 (bispecific antibody)
chain 1: B18 chain 1 with Y33W, N35T, S55T, V62R, F98Y, F107Y
chain 2: not shown
B26: DGL655 (bispecific antibody)
chain 1: B18 chain 1 with Y32S, N35S, W103Y, F107Y
chain 2: not shown
B27: DGL862 (bispecific antibody)
chain 1: not shown
chain 2: B18 chain 1
B28: DGL732 (bispecific antibody)
chain 1: B18 chain 1 with Y33W, N35T, V62R, F107Y
chain 2: not shown
B29: DGL861 (bispecific antibody)
chain 1: not shown
chain 2: B18 chain 1
B30: DGL868 (bispecific antibody)
chain 1: not shown
chain 2: B18 chain 1 with Q106Y, F107Y
B31: DGL860 (bispecific antibody)
chain 1: not shown
chain 2: B18 chain 1
B32: DGL863 (bispecific antibody)
chain 1: not shown
chain 2: B18 chain 1 with Y32S, N35S, W103Y, F107Y
B33: DGL735 (bispecific antibody)
chain 1: B18 chain 1 with Y33W, N35T, S55T, V62R, A101S, F107Y
chain 2: not shown

Each binder was assayed against human ALK1 protein (Sino Biological, #10066-H08H) (human, UniProt P37023 22-118) (assay: ELISA, coated human ALK1).
Procedure: These binders were then tested using an ELISA assay. High binding plates (Corning, 9018) were coated with either 2 μg/ml of human BMPRII protein (Sino Biological, #10551-H08H) or 2 μg/ml of human ALK1 protein (Sino Biological, #10066-H08H) overnight at 4C. The plates were then washed three times with wash buffer (R&D Systems, WA126). […] The plates were then washed three times with wash buffer and DGL antibodies or controls, which were diluted with PBS and 0.1% BSA. The antibodies were incubated for one hour at room temperature and then the plates were washed three times with wash buffer. The plates were then incubated with mouse anti-human IgG Fc secondary—HRP (diluted with PBS/0.1% BSA); 100 ul per well at 2 μg/ml and incubated at room temperature for one hour. The plate was washed three times in wash buffer and then 100 ul TMB (R&D Systems, DY9998B, substrate reagent pack). After the wells turn blue, 50 ul of stop solution (R&D Systems, DY994) was added to each well and the absorbance of the plate was read at 450 nm. results can be found in Table 8.

Chain of human ALK1 protein (Sino Biological, #10066-H08H) (P37023 22-118 limits assumed): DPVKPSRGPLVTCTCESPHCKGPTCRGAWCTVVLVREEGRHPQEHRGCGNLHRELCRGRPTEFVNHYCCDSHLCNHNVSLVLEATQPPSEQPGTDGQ

Abs450 1 nM	Abs450 10 nM	Abs450 100 nM	Binder
0.07	0.19	0.7	B1
0.07	0.07	0.08	B2
0.06	0.05	0.06	B3
0.17	0.95	1.58	B4
0.15	0.75	1.58	B5
0.14	0.61	1.43	B6
0.09	0.46	1.39	B7
0.05	0.22	1.02	B8
0.11	0.56	1.45	B9
0.16	0.77	1.48	B10

What follows are binders tested against ALK-1/BMPR-2 receptor pair of the PathHunter U2Os dimerization cells (DiscoverX 93-0962C3) (UniProt P37023 22-503; Q13873 27-1038) (assay: cell-based or functional assay).
Chain of ALK-1/BMPR-2 receptor pair of the PathHunter U2Os dimerization cells (DiscoverX 93-0962C3) (P37023 22-503, chain 1 of 2): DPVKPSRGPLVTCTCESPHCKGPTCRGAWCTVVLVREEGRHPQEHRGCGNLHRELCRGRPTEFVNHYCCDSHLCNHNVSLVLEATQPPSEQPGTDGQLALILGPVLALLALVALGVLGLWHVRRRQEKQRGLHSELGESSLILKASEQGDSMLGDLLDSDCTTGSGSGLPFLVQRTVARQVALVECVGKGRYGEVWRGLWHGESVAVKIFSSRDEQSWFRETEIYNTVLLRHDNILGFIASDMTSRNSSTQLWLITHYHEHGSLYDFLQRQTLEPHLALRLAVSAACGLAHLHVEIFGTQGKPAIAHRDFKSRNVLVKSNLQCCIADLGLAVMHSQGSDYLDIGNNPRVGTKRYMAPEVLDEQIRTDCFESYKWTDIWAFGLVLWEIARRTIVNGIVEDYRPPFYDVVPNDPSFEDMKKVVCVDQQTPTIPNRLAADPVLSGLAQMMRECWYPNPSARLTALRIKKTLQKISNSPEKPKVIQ
Chain of ALK-1/BMPR-2 receptor pair of the PathHunter U2Os dimerization cells (DiscoverX 93-0962C3) (Q13873 27-1038, chain 2 of 2): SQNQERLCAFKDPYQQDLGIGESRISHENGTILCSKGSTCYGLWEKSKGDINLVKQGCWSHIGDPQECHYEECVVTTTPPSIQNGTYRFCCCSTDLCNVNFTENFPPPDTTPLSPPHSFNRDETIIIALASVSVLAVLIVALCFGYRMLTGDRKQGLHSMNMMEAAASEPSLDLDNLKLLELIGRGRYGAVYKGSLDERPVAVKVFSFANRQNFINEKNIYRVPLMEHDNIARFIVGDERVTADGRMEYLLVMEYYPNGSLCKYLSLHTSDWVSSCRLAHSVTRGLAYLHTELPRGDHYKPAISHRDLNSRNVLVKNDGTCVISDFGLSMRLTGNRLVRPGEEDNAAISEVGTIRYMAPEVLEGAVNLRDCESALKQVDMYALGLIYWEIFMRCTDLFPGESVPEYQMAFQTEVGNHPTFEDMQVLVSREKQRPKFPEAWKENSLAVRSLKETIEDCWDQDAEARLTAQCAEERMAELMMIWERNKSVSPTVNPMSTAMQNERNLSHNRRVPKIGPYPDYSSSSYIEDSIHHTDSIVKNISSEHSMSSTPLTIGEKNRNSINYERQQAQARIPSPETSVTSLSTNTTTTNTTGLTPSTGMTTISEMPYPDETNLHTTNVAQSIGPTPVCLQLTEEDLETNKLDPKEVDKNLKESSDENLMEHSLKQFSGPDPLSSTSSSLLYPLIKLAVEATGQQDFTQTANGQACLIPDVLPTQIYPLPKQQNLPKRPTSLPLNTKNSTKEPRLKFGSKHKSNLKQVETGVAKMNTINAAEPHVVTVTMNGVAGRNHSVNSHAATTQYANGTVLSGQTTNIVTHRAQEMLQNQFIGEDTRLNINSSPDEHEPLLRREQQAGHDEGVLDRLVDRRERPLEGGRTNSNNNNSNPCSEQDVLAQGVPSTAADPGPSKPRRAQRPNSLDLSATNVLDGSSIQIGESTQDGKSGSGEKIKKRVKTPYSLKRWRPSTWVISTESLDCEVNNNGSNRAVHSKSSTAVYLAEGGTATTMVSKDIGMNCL

% Emax BMP9	Emax (RLU)	Binder
13%	470000 RLU	B1
5%	168000 RLU	B2
4%	130000 RLU	B3
30%	1.09e+06 RLU	B4
25%	936000 RLU	B5
30%	1.11e+06 RLU	B6
41%	752000 RLU	B7
60%	1.48e+06 RLU	B11
73%	1.13e+06 RLU	B12
100%	1.56e+06 RLU	B13
58%	1.43e+06 RLU	B14
72%	1.76e+07 RLU	B15
22%	342000 RLU	B16
77%	1.2e+06 RLU	B17
80%	1.47e+06 RLU	B8
20%	362000 RLU	B9
21%	382000 RLU	B10

% Emax BMP9	Emax (RLU)	Binder
76%	1.87e+06 RLU	B18
30%	755000 RLU	B19
106%	1.65e+06 RLU	B20
22%	553000 RLU	B21
58%	1.48e+06 RLU	B22
45%	1.15e+06 RLU	B23
55%	1.36e+06 RLU	B24
14%	217000 RLU	B25
18%	437000 RLU	B26
83%	2.13e+06 RLU	B27
54%	845000 RLU	B28
81%	2.08e+06 RLU	B29
67%	1.71e+06 RLU	B30
79%	2.01e+06 RLU	B31
24%	604000 RLU	B32
68%	1.06e+06 RLU	B33
